From US7087393 come the findings set out here.

This test addresses rabbit anti-CS198 peptide antiserum raised against the unconjugated peptide of SEQUENCE ID NO 44 (13 week bleed). Description: Western blot competition: antiserum pre-incubated overnight at 4 C with varying concentrations of peptide immunogen before exposure to the filter carrying the 45 kD band. On the technique in general: A western blot detects proteins with antibodies after separation by electrophoresis.

B1: CS198 synthetic peptide of SEQUENCE ID NO 44 (peptide)
peptide: RLQKSQSSDLLERERESVLRREQEVAEERRN
B1: the concentration of peptide at which antibody binding to the band was inhibited came to 2.6 µM.
